Data on 4 molecules can be found in patent publication US20260265349A1 (GRIFFITH UNIVERSITY, published 2026).

For test [1], the target named is T1, norovirus GII.17 Kawasaki308 P domain (norovirus GII.17 Kawasaki308).
T1 construct: also called GII.17 P domain
T1 chain: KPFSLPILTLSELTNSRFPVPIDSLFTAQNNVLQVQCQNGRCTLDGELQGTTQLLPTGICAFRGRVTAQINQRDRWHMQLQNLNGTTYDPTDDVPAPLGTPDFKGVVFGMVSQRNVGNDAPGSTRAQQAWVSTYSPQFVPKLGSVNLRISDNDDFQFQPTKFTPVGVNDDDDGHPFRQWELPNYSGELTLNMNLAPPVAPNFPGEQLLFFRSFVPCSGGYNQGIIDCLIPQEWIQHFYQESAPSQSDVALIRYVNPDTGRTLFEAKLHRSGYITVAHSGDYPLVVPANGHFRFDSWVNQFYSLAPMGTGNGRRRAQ
Description: ITC, nanobody into P domain, 25 C.
Description: (§1) Isothermal calorimetry (ITC) experiments were done using an ITC-200 (Malvern). Samples were prepared in PBS and filtered prior to the experiments. […] Injections were performed until saturation was achieved. To correct for heats of dilution from titrants control experiments were performed by titrating nanobodies into PBS. The heat associated with the control titration was subtracted from raw binding data prior to fitting. The data was fitted using a single set-binding model (Origin 7.0 software). Nanobody binding sites on the P domains were assumed to be identical. All ITC experiments were performed in triplicate with the average and standard deviation calculated.

The target in test [2] is T2, norovirus GII.17 Kawasaki308 virus-like particles (norovirus GII.17 Kawasaki308).
T2 construct: also called GII.17 Kawasaki308 VLPs; GII.17 VLPs
T2 chain: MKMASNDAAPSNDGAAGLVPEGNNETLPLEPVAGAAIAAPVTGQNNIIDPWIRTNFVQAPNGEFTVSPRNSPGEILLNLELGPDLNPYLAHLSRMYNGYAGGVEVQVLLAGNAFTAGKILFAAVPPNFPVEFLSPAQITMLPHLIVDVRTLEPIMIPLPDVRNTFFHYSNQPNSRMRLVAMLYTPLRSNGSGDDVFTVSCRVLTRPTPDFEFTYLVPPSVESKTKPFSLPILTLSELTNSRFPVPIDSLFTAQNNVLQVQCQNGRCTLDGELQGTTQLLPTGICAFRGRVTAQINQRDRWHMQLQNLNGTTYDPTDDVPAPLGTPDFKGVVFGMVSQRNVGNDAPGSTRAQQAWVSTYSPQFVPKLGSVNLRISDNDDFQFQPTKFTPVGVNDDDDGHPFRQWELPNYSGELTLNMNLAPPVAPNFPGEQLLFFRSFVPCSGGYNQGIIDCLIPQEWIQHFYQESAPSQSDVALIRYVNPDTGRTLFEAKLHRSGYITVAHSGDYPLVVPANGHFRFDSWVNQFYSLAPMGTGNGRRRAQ
Description: direct ELISA on coated VLPs. On the technique in general: An ELISA detects its analyte on a solid surface through an enzyme-linked reagent.

Test [3] concerns the target T2, norovirus GII.17 Kawasaki308 virus-like …. In words: blocking ELISA: VLPs pre-incubated with nanobody, attachment to PGM (HBGA) coated plate.
The target of test [4] is T3, norovirus GII.4 Sydney-2012 virus-like particles (norovirus GII.4 Sydney-2012, UniProt P54635 1-538).
T3 construct: also called GII.4 Sydney-2012 VLPs; GII.4 VLPs
T3 chain: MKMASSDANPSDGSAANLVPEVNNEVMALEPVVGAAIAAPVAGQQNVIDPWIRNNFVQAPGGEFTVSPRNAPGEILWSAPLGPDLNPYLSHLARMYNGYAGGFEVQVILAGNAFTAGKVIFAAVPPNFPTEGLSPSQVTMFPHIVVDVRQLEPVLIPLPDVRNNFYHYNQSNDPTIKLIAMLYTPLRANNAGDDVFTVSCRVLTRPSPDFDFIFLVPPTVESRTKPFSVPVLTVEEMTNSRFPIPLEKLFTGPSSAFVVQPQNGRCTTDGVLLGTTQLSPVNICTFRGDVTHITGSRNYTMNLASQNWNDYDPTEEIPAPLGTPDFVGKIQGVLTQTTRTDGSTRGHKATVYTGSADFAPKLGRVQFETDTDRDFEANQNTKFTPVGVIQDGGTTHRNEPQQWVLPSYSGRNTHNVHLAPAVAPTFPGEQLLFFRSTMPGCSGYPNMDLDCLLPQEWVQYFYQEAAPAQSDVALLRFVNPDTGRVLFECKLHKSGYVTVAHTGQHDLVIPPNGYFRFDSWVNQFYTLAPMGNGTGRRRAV
In words: direct ELISA on coated VLPs, heat map of OD492.

The target of test [5] is T4, norovirus GII.10 Vietnam 026 virus-like particles (norovirus GII.10 Vietnam 026).
T4 construct: also called GII.10 VLPs
T4 chain: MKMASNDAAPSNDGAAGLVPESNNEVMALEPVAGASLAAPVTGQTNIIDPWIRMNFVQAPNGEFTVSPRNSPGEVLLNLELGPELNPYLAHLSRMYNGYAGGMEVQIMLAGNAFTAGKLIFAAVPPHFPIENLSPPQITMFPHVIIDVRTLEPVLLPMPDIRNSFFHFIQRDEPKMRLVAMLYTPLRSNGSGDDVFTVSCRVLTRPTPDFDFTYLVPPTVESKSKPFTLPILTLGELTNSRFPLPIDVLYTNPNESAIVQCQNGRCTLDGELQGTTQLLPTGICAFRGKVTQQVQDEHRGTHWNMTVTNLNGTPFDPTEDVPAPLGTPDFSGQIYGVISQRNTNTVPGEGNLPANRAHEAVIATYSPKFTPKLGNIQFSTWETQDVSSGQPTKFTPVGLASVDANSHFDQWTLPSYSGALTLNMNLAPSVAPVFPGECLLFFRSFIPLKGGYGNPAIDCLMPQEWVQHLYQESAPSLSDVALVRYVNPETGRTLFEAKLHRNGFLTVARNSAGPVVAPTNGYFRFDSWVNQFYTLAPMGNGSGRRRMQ
Description: direct ELISA on coated VLPs, heat map of OD492.

For test [6], the target named is T4, norovirus GII.10 Vietnam 026 virus-like …. Description: direct ELISA on coated VLPs, heat map of OD492.
Test [7] deals with T2, norovirus GII.17 Kawasaki308 virus-like …. In words: direct ELISA on coated VLPs, heat map of OD492.
The target in test [8] is T5, norovirus GII.4 Sydney-2012 P domain (norovirus GII.4 Sydney-2012).
T5 construct: also called GII.4 P domain
T5 chain: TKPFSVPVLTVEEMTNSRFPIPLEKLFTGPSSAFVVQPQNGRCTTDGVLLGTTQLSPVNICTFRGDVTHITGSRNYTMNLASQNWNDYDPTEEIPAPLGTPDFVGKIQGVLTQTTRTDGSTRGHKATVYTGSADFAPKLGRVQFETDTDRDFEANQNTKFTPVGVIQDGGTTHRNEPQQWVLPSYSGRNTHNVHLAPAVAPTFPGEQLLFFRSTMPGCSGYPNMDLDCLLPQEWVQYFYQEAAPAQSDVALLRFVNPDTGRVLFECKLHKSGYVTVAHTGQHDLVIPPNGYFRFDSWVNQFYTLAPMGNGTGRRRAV
Description: ITC, nanobody into P domain, 25 C. On the technique in general: ITC needs no label: the signal is the heat of the interaction.
Description: as §1

Test [9] concerns the target T3, norovirus GII.4 Sydney-2012 virus-like …. In words: direct ELISA on coated VLPs.
The target is the same in test [10]. Description: direct ELISA, VLPs coated at 2 µg/mL, His-tagged nanobody detected with anti-His-HRP, OD490.
For test [11] the target is unchanged. In words: blocking ELISA: VLPs pre-incubated with nanobody, attachment to PGM (HBGA) coated plate.

Several values for one entry are separate records, joined by “and”; a condition that tells them apart may be missing. Equal values may be shown once. Read-outs that look alike come from different tables or passages of the source.

B1: NB-2 single domain antibody (VHH)
VHH: QVQLQESGGGLVQAGGSLRLSCAASGRFFSSYAMGWFRQAPGKEREFVAAISWSGGSTYYADSVKGRFTTSRDNAKNTVYLLMNSLKPEDTAVYYCAAAREGAYYPDSYYRTVRYDYWGQGTQVTVSS
notes: also called GII.17 nanobody; not shown: C-terminal His tag ('His-tagged nanobodies')
Consider B1, for which, in test [1], the “+TΔS” value stood at 6.14 kcal/mol, binding was characterised by a dissociation constant (Kd) of 7.5 nM, the ΔG is -11.1 kcal/mol and the ΔH is -17.2 kcal/mol. Besides, the “nanobody concentration at the cut-off (OD490 0.15)” value (shortened to “nanobody concentration”) in [2] came to 0.78 µg/mL. Also, the IC50 in test [3] is 0.85 µg/mL and 0.84 µg/mL. For the same molecule, the binding result in test [4] is “no binding”. In addition, the binding result in [5] is given as “no binding”.

B2: NB-76 single domain antibody (VHH, not shown: small tags and cut ends)
VHH: QVQLQESGGGLVQAGGSLRLSCAASGTIFSIDAFGWYRQAPGKQREWVAGITSGSSTIYADFVKGRFTISRDNAKNTVFLQMNSLKPEDTAVYYCNRAKPPTYYSLEPWGKGTQVTVSS
notes: also called GII.4 nanobody
B2: in [6], the binding result was “no binding”. For the same molecule, the binding result in test [7] is listed as “no binding”. In test [8], the “+TΔS” value turned out to be 2.22 kcal/mol, the Kd is 56.7 nM, the ΔG is -9.89 kcal/mol and the ΔH was -12.1 kcal/mol. Moreover, the “nanobody concentration” value in test [9] was 0.38 µg/mL. In addition, the concentration giving a half-maximal response (EC50 (read off the curve)) in [10] is about 2 µg/mL. The molecule also registered a half-maximal inhibitory concentration (IC50) in test [11] of 1.42 µg/mL.

B3: NB-45 single domain antibody (VHH)
VHH: QVQLQESGGGLVQAGGSLRLSCTVSGRTDSESTMGWFRQAAGKGREFVAAMNWRYATTYHTDSVKGRFTISKDSAKNTMYLQMNSLKPEDTAVYYCAHRYIYGSLSDSGSYDNWGQGTQVTVSS
notes: as for B1
With B3, in test [1], the “+TΔS” value is -4.4 kcal/mol, the equilibrium dissociation constant (Kd) is 101 nM, the ΔG is -9.82 kcal/mol and the ΔH was -5.43 kcal/mol. It took 0.46 µg/mL to reach half-maximal inhibition in [3] (IC50). Moreover, the binding result in test [4] was “no binding”. Moreover, the binding result in test [5] is on record as “no binding”.

B4: NB-7 single domain antibody (VHH)
VHH: QVQLQESGGGLVQAGGSLRLSCAASGRTFSSYRMGWYRQAPGKEREFVAAITGSGDSTNYADSVKGRFTVSGNSARNLVYLQMNSLKPEDTAVYLCVAYRTGGPPQWGQGTQVTVSS
notes: as for B1
Regarding B4, in test [1], the “+TΔS” value came to 10.2 kcal/mol, the dissociation constant Kd stood at 40.9 nM, the ΔG was -10.1 kcal/mol and the ΔH is -20.3 kcal/mol. The “nanobody concentration” value in [2] amounted to 1.56 µg/mL. In test [3], this molecule came in with a concentration for half-maximal inhibition (IC50) of 0.88 µg/mL. The binding result in [4] is “no binding”. In test [5], the binding result is on record as “no binding”.

The Kd is the concentration at which binding is half-saturated. The term IC50 denotes the midpoint of a concentration-inhibition curve. As a reminder, the EC50 (read off the curve) is the concentration giving half of the maximal effect.
